In patent US20150037339A1 (Regeneron, published 2015):
Each block holds one binder with its values, some of them ahead of it.

Tests used:
[1] = biological target: T1, Activin A (homodimer of two inhibin βA subunits; R&D Systems, #338-AC) (human, UniProt P08476 311-426); assay: SPR blocking: 5 nM Activin A + 30 nM binder over hActRIIB-hFc (Control 4) surface
T1 construct: Bought protein; also called inhibin-βA dimer
T1 sequence: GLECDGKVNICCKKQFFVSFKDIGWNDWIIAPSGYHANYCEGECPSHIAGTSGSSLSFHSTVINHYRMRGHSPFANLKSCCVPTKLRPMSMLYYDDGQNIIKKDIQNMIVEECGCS
Experimental: (§1) The binding signal (RU) was measured at 150 seconds after the start of the injection, and this signal was subtracted by the measured RU value for a negative control reference surface to determine the specific binding signal.

[2] = biological target: T1, Activin A (homodimer of two inhibin βA …); assay: SPR blocking: 5 nM Activin A + 3.75 nM binder over hActRIIB-hFc (Control 4) surface
Experimental: as §1

[3] = biological target: T1, Activin A (homodimer of two inhibin βA …); assay: SPR blocking: 5 nM Activin A + 7.5 nM binder over Follistatin-288 surface
Experimental: as §1

[4] = biological target: T1, Activin A (homodimer of two inhibin βA …); assay: SPR blocking: 5 nM Activin A + 0 nM binder over Follistatin-288 surface
Experimental: as §1

[5] = biological target: T1, Activin A (homodimer of two inhibin βA …); assay: SPR blocking: 5 nM Activin A + 30 nM binder over Follistatin-288 surface
Experimental: as §1

[6] = biological target: T1, Activin A (homodimer of two inhibin βA …); assay: SPR blocking: 5 nM Activin A + 0.00 nM binder over hActRIIA-hFc surface
Experimental: as §1

[7] = biological target: T1, Activin A (homodimer of two inhibin βA …); assay: SPR blocking: 5 nM Activin A + 60 nM binder over Follistatin-288 surface
Experimental: as §1

[8] = biological target: T1, Activin A (homodimer of two inhibin βA …); assay: SPR blocking: 5 nM Activin A + 15 nM binder over hActRIIB-hFc (Control 4) surface
[9] = biological target: T1, Activin A (homodimer of two inhibin βA …); assay: SPR blocking: 5 nM Activin A + 3.75 nM binder over hActRIIA-hFc surface
Experimental: as §1

[10] = biological target: T1, Activin A (homodimer of two inhibin βA …); assay: SPR blocking: 5 nM Activin A + 15 nM binder over Follistatin-288 surface
Experimental: as §1

[11] = biological target: T1, Activin A (homodimer of two inhibin βA …); assay: SPR blocking: 5 nM Activin A + 0.94 nM binder over Follistatin-288 surface
Experimental: as §1

[12] = biological target: T1, Activin A (homodimer of two inhibin βA …); assay: SPR blocking: 5 nM Activin A + 7.50 nM binder over hActRIIA-hFc surface
Experimental: as §1

[13] = biological target: T1, Activin A (homodimer of two inhibin βA …); assay: SPR blocking: 5 nM Activin A + 0.94 nM binder over hActRIIB-hFc (Control 4) surface
[14] = biological target: T1, Activin A (homodimer of two inhibin βA …); assay: SPR blocking: 5 nM Activin A + 60 nM binder over hActRIIB-hFc (Control 4) surface
Experimental: as §1

[15] = biological target: T1, Activin A (homodimer of two inhibin βA …); assay: SPR blocking: 5 nM Activin A + 30 nM binder over hActRIIA-hFc surface
Experimental: as §1

[16] = biological target: T1, Activin A (homodimer of two inhibin βA …); assay: SPR blocking: 5 nM Activin A + 0.94 nM binder over hActRIIA-hFc surface
Experimental: as §1

[17] = biological target: T1, Activin A (homodimer of two inhibin βA …); assay: SPR blocking: 5 nM Activin A + 3.75 nM binder over Follistatin-288 surface
Experimental: as §1

[18] = biological target: T1, Activin A (homodimer of two inhibin βA …); assay: SPR blocking: 5 nM Activin A + 1.88 nM binder over hActRIIB-hFc (Control 4) surface
Experimental: as §1

[19] = biological target: T1, Activin A (homodimer of two inhibin βA …); assay: SPR blocking: 5 nM Activin A + 7.50 nM binder over hActRIIB-hFc (Control 4) surface
[20] = biological target: T1, Activin A (homodimer of two inhibin βA …); assay: SPR blocking: 5 nM Activin A + 15 nM binder over hActRIIA-hFc surface
Experimental: as §1

[21] = biological target: T1, Activin A (homodimer of two inhibin βA …); assay: SPR blocking: 5 nM Activin A + 0.00 nM binder over hActRIIB-hFc (Control 4) surface
Experimental: as §1

[22] = biological target: T1, Activin A (homodimer of two inhibin βA …); assay: SPR blocking: 5 nM Activin A + 1.88 nM binder over hActRIIA-hFc surface
Experimental: as §1

[23] = biological target: T1, Activin A (homodimer of two inhibin βA …); assay: SPR blocking: 5 nM Activin A + 60 nM binder over hActRIIA-hFc surface
Experimental: as §1

[24] = biological target: T1, Activin A (homodimer of two inhibin βA …); assay: SPR blocking: 5 nM Activin A + 1.88 nM binder over Follistatin-288 surface
Experimental: as §1

[25] = biological target: T2, Activin AB (human, UniProt P08476 311-426; P09529 293-407); assay: SPR (Biacore), mAb captured on anti-Fc, Activin AB injected, 37 C
T2 construct: Heterodimer of one betaA and one betaB subunit; bought (R&D Systems #1006-AB-005 / #1066-AB)
T2 chain 1: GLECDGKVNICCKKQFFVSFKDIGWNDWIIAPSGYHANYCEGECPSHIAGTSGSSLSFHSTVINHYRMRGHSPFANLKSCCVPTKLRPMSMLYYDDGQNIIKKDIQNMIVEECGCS
T2 chain 2: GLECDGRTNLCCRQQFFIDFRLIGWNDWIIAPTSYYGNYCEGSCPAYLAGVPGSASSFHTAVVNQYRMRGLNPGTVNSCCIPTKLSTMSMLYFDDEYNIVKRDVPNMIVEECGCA
Experimental: (§2) Antibody-antigen association was monitored for 240 seconds while dissociation in buffer was monitored for 600 seconds. Kinetic association and dissociation rate constants were determined by processing and fitting the data using Scrubber software version 2.0c. Binding equilibrium dissociation constants (KD) and dissociative half-lives (t_{1/2}) were then calculated from the kinetic rate constants as: KD (M)=kd/kₐ and t_{1/2} (min)=[ln 2/(60*kd)]. (NB=no binding observed under the conditions used; NT=not tested).

[26] = biological target: T3, Activin AC (human, UniProt P55103 237-352); assay: SPR (Biacore), mAb captured on anti-Fc, Activin AC injected, 37 C
T3 construct: Heterodimer of one betaA and one betaC subunit; bought (R&D Systems #4879-AC)
T3 sequence 1: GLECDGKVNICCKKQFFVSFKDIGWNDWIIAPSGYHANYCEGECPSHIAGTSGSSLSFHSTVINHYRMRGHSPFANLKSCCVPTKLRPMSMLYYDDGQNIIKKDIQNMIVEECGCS
T3 sequence 2: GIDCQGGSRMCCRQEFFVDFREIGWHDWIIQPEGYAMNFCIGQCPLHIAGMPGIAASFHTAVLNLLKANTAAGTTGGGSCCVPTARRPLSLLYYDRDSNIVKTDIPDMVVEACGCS
Experimental: as §2

[27] = biological target: T2, Activin AB; assay: SPR (Biacore), mAb captured on anti-Fc, Activin AB injected, 25 C
Experimental: as §2

[28] = biological target: T3, Activin AC; assay: SPR (Biacore), mAb captured on anti-Fc, Activin AC injected, 25 C
Experimental: as §2

[29] = biological target: T3, Activin AC; assay: cell-based or functional assay
[30] = biological target: T4, Activin A (human, UniProt P08476 311-426); assay: cell-based or functional assay
T4 sequence: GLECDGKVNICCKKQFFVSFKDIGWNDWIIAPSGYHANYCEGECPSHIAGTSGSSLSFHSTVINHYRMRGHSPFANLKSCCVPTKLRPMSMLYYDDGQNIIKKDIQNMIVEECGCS

[31] = biological target: T2, Activin AB; assay: cell-based or functional assay
[32] = biological target: T5, Activin B (human, UniProt P09529 293-407); assay: cell-based or functional assay
T5 chain: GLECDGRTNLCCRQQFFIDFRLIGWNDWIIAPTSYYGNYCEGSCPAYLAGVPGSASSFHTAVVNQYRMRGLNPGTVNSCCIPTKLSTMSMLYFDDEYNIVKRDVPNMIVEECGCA

% bound RU w/no inhibitor [1]: 41%
% bound RU w/no inhibitor [2]: 47%
% bound RU w/no inhibitor [3]: 97%
% bound RU w/no inhibitor [4]: 100%
% bound RU w/no inhibitor [5]: 94%
% bound RU w/no inhibitor [6]: 100%
% bound RU w/no inhibitor [7]: 93%
% bound RU w/no inhibitor [8]: 42%
% bound RU w/no inhibitor [9]: 111%
% bound RU w/no inhibitor [10]: 96%
% bound RU w/no inhibitor [11]: 120%
% bound RU w/no inhibitor [12]: 110%
% bound RU w/no inhibitor [13]: 93%
% bound RU w/no inhibitor [14]: 41%
% bound RU w/no inhibitor [15]: 114%
% bound RU w/no inhibitor [16]: 112%
% bound RU w/no inhibitor [17]: 103%
% bound RU w/no inhibitor [18]: 78%
% bound RU w/no inhibitor [19]: 42%
% bound RU w/no inhibitor [20]: 112%
% bound RU w/no inhibitor [21]: 100%
% bound RU w/no inhibitor [22]: 114%
% bound RU w/no inhibitor [23]: 116%
% bound RU w/no inhibitor [24]: 122%
B1: H4H10423P (antibody, human IgG4, V domains shown)
VH: QVQLQQSGPGLLKPSQTLSLTCAISGDSVSSNSAAWSWIRQSPSRGLEWLGRTYYRANWFNDYALSVKSRITINPVTSTNHFSLQLHSVTPEDTAVYYCAREGALGYYFDSWGQGTLVTVSS
VL: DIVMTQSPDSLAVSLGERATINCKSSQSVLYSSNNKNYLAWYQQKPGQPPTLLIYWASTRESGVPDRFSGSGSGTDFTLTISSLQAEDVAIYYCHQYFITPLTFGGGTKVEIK
notes: H4H prefix means human IgG4 Fc

50 nM Ag Bound (RU) [25]: 17.7 RU
Kd [25]: 0.314 nM
koff [25]: 0.00163 s⁻¹
kon [25]: 5.2e+06 M⁻¹ s⁻¹
t1/2 [25]: 7.1 min
50 nM Ag Bound (RU) [26]: 13.3 RU
Kd [26]: 1.05 nM
koff [26]: 0.000755 s⁻¹
kon [26]: 718000 M⁻¹ s⁻¹
t1/2 [26]: 15.3 min
50 nM Ag Bound (RU) [27]: 15.5 RU
Kd [27]: 0.177 nM
koff [27]: 0.000526 s⁻¹
kon [27]: 2.97e+06 M⁻¹ s⁻¹
t1/2 [27]: 22 min
50 nM Ag Bound (RU) [28]: 11.8 RU
Kd [28]: 0.442 nM
koff [28]: 0.000227 s⁻¹
kon [28]: 513000 M⁻¹ s⁻¹
t1/2 [28]: 50.8 min
IC50 [M], inhibition of 4 nM Activin AC in A204/CAGAx12-Luc Smad2/3-luciferase bioassay [29]: 7.5e-10 M
IC50 [M], inhibition of 100 pM Activin A in A204/CAGAx12-Luc Smad2/3-luciferase bioassay [30]: 2.8e-10 M
IC50 [M], inhibition of 30 pM Activin AB in A204/CAGAx12-Luc Smad2/3-luciferase bioassay [31]: 4.3e-10 M
IC50 [M], inhibition of 50 pM Activin B in A204/CAGAx12-Luc Smad2/3-luciferase bioassay [32]: 5.2e-09 M
B2: H4H10440P2 (antibody, human IgG4, V domains shown)
VH: EVQLVESGGGVVQPGGSLRLSCAASTFTFDDFAMHWVRQAPGKGLEWVSLITGDGGSTYYADPVKGRFTISRDNSKNSLYLQMNSLRTEDTALYYCVKDWWIAARPDYYYYGMDVWGQGTTVTVSS
VL: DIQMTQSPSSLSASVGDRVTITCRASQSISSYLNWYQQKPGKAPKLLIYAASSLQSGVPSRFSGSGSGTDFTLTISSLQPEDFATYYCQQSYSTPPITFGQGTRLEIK

IC50 [M], inhibition of 100 pM Activin A in A204/CAGAx12-Luc Smad2/3-luciferase bioassay [30]: 1.5e-10 M
IC50 [M], inhibition of 50 pM Activin B in A204/CAGAx12-Luc Smad2/3-luciferase bioassay [32]: 1e-07 M
B3: H4H10433P2 (antibody, human IgG4, V domains shown)
VH: EVQLVESGGGLVQAGRSLRLSCEASGFTFDDYGMHWVRQGPGKGLEWVSGISWNSGNIDYADSVKGRFTISRDNAKTSLYLQMNSLKTDDTALYFCAKDAVGFNWNYFLFDYWGQGTLVTVSS
VL: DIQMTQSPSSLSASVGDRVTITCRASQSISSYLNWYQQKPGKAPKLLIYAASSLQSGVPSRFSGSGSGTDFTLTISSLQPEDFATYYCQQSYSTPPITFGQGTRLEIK
